The source of these data is PMC7994789, “Glycosyltransferase POMGNT1 deficiency strengthens N-cadherin-mediated cell–cell adhesion” (The Journal of Biological Chemistry, 2021).

This series concerns the molecule itself. Briefly: bead aggregation assay; EC-N-Cdh coated on Dynabeads (40 μg protein per 40 μl beads, o/n 4 °C); binding buffer 50 mM Tris-HCl pH 7.2, 100 mM NaCl, 10 mM KCl, 0.2% BSA; 2 mM CaCl2 (2 mM EDTA as control); room temperature; aggregate size imaged over 1 h.

B1: recombinant extracellular domain (EC) of N-cadherin (EC-N-Cdh) purified from ΔPOMGnT1 HEK293T cells (domain or fragment, mouse, UniProt P15116 160-724, looked up)
chain: DWVIPPINLPENSRGPFPQELVRIRSDRDKNLSLRYSVTGPGADQPPTGIFIINPISGQLSVTKPLDRELIARFHLRAHAVDINGNQVENPIDIVINVIDMNDNRPEFLHQVWNGSVPEGSKPGTYVMTVTAIDADDPNALNGMLRYRILSQAPSTPSPNMFTINNETGDIITVAAGLDREKVQQYTLIIQATDMEGNPTYGLSNTATAVITVTDVNDNPPEFTAMTFYGEVPENRVDVIVANLTVTDKDQPHTPAWNAAYRISGGDPTGRFAILTDPNSNDGLVTVVKPIDFETNRMFVLTVAAENQVPLAKGIQHPPQSTATVSVTVIDVNENPYFAPNPKIIRQEEGLHAGTMLTTLTAQDPDRYMQQNIRYTKLSDPANWLKIDPVNGQITTIAVLDRESPNVKNNIYNATFLASDNGIPPMSGTGTLQIYLLDINDNAPQVLPQEAETCETPEPNSINITALDYDIDPNAGPFAFDLPLSPVTIKRNWTINRLNGDFAQLNLKIKFLEAGIYEVPIIITDSGNPPKSNISILRVKVCQCDSNGDCTDVDRIVGAGLGTGA
modifications: N-glycans at Asn273, 325, 402, 572, 622, 651, 692: nongalactosylated complex-type N-glycans with a bisecting GlcNAc dominate at all sites except Asn651 and Asn692; galactosylation (-27% on average) and sialylation (-16% on average) decreased against the WT-derived protein; O-mannosylation as in the WT-derived protein
notes: N-cadherin (neural cadherin), mouse, extracellular domain (EC1-EC5) amplified from mouse cDNA; same construct as m1, other host cells; Same polypeptide as m1; It differs only in the N-glycans, because it was made in POMGNT1 knockout cells; See the note of m1 for the limits read from the primers; also called ΔPOMGnT1-derived N-Cdh; N-Cdh from ΔPOMGnT1 cells; source: ΔPOMGnT1 (POMGNT1 knockout) …
B1: the binding result is “binds”.

B2: recombinant extracellular domain (EC) of N-cadherin (EC-N-Cdh) purified from WT HEK293T cells (domain or fragment, mouse, UniProt P15116 160-724, looked up)
chain: DWVIPPINLPENSRGPFPQELVRIRSDRDKNLSLRYSVTGPGADQPPTGIFIINPISGQLSVTKPLDRELIARFHLRAHAVDINGNQVENPIDIVINVIDMNDNRPEFLHQVWNGSVPEGSKPGTYVMTVTAIDADDPNALNGMLRYRILSQAPSTPSPNMFTINNETGDIITVAAGLDREKVQQYTLIIQATDMEGNPTYGLSNTATAVITVTDVNDNPPEFTAMTFYGEVPENRVDVIVANLTVTDKDQPHTPAWNAAYRISGGDPTGRFAILTDPNSNDGLVTVVKPIDFETNRMFVLTVAAENQVPLAKGIQHPPQSTATVSVTVIDVNENPYFAPNPKIIRQEEGLHAGTMLTTLTAQDPDRYMQQNIRYTKLSDPANWLKIDPVNGQITTIAVLDRESPNVKNNIYNATFLASDNGIPPMSGTGTLQIYLLDINDNAPQVLPQEAETCETPEPNSINITALDYDIDPNAGPFAFDLPLSPVTIKRNWTINRLNGDFAQLNLKIKFLEAGIYEVPIIITDSGNPPKSNISILRVKVCQCDSNGDCTDVDRIVGAGLGTGA
modifications: N-glycans at Asn190 (scarcely), 273, 325, 402, 572, 622, 651, 692 (complex-type, Asn651 high-mannose-type); nonelongated O-linked mannose at 15 sites (Table S6)
notes: N-cadherin (neural cadherin), mouse, extracellular domain (EC1-EC5) amplified from mouse cDNA; Cloned AscI/XhoI into pSecTag2 (Invitrogen); also called WT-derived N-Cdh; N-Cdh extracellular domain; source: HEK293T (WT), stably transfected with pMLHD7, secreted into serum-free medium, purified (HisTrap); not shown: His8, C-terminal, kept
For B2, the binding result is on record as “binds”.
